The values that follow are results of earlier work, collected in article PMC12332068.

Series [1] deals with Bzz1 SH3#1 (Saccharomyces cerevisiae) (UniProt P38822). Description: BLI. (In general: Biolayer interferometry detects binding as a change in optical thickness at a sensor tip.)
Series [2] deals with Bzz1 SH3#1-2 (Saccharomyces cerevisiae) (UniProt P38822). Description: BLI.

pKd: −log10 of the molar value.

Las17 300-422 (from UniProt Q12446): the negative-log Kd (pKd) – broadly, −log10 of the Kd, conventionally taken in molar units – in series [1] is 5.12; in series [2] it was 7.06.
